Target: T1, GH蛋白 (垂体瘤组织中的内源GH) (human, UniProt P01241 27-217)
T1 construct: Endogenous antigen detected by immunohistochemistry in pituitary tumour samples; also called 人GH蛋白
Assay: immunohistochemistry on 9 pituitary tumour samples

T1 sequence (P01241 27-217 limits assumed): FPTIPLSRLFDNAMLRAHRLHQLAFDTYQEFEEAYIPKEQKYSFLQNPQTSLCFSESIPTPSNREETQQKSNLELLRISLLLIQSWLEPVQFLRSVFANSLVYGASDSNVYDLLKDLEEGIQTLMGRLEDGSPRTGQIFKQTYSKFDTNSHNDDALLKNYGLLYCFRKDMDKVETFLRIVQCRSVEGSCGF

B1: 抗GH蛋白单克隆抗体(9D5D2A9) (antibody, V domains shown)
VH: QVQLKESGPGLVAPSQSLSITCTVSGFSLTNYGIHWVRQPPGKGLEWLGLIWSGGSTKYNSALMSRLSISRDNSKSQVFLKMNSLQSDDTAMYYCVRDELYAYWGQGTLVTVSA
VL: DIVMTQSHKFMSTSVGDRVSITCKASQDVGPTVAWYQQKPGQSPKLLIYWASTRHTGVPDRFTGSGYGTDFTLTISNVQSEDLADYFCQQYSSYPFTFGSGTKLEIK
notes: also called GH单克隆抗体; CGMCC NO.22315
B1: binds.
